The text below walks through data of patent US11015206B2, “Compositions and methods comprising sequences having hydroxyphenylpyruvate dioxygenase (HPPD) activity” (PIONEER HI-BRED INTERNATIONAL, INC., priority 2014, dated 2021).

Format in all cases: biochemical, Z. mays
In series [1] the test system is 4-hydroxyphenylpyruvate dioxygenase (HPPD). Put plainly: HPPD activity coupled assay with HGD; substrate saturation kinetic parameters (kcat, KM). The following applies: Table 6; for kcat: single substitutions in SEQ ID NO:2. Put shortly:
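Coupled continuous assay: His-tagged HPPD (5 to 240 nM, E. coli-expressed, Ni-NTA-purified) with 50 nM P. aeruginosa HGD in 25 mM Hepes pH 7, 2 mM ascorbate, 10 μM FeSO4; maleylacetoacetate followed at 320 nm. KM and Vmax from Lineweaver-Burke fits over 3.33–100 μM HPP.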

Series [2] shares this test system. Put plainly: ON rate ratio: HPPD reaction rate with vs without inhibitor in the 70 to 90 second interval. The following applies: Table 5; tembotrione. Put shortly: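 Time courses of HPPD reactions, 60 or 120 nM enzyme with 100 μM HPP substrate, run with and without 4 μM inhibitor (e.g. mesotrione, tembotrione). Value is the rate with inhibitor over rate without, taken over 70–90 s; higher ratio reflects slower kON.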

The test system is the same in series [3]. Kind of series: OFF rate ratio: release of inhibitor from pre-formed enzyme-inhibitor complex. The following applies: Table 5; tembotrione. The procedure, abridged:
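HPPD (7.2 μM) pre-incubated 1 h at RT with inhibitor (8 μM), then diluted into 25 mM Hepes pH 7, 2 mM ascorbate, 10 μM FeSO4, 100 μM HPP, 50 nM HGD; A320 followed 12 min. Ratio = steady-state rate with inhibitor over initial rate of inhibitor-free enzyme.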

The test system is the same in series [4]. Put plainly: Insensitivity parameter (ON × OFF) and trait fitness (ON × OFF × kcat/KM or × kcat). The note with it: for ON × OFF × kcat, Value / ON × OFF × kcat, Fold vs wt / ON × OFF, fold vs wt / ON × OFF (parameters with tembotrione): Table 5, tembotrione; for ON × OFF × kcat, Fold vs wt / ON × OFF, fold vs wt: fold vs maize wild type HPPD; for ON × OFF (parameters with tembotrione): insensitivity parameter. Put shortly:
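Calculated, not measured directly: ON rate ratio × OFF rate ratio gives an insensitivity parameter serving as a KD surrogate.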

Series [5] shares this test system. Put plainly: Estimate of kcat from initial rate at saturating hydroxyphenylpyruvate without inhibitor (ON rate ratio assay). The note with it: Table 5; single substitutions in Round 7 variant 9070 (SEQ ID NO:2); estimate from initial rate at saturating hydroxyphenylpyruvate without inhibitor. The procedure, abridged:
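Reactions used 60 or 120 nM HPPD and saturating 100 μM hydroxyphenylpyruvate without inhibitor. kcat was estimated from the initial rate at the known enzyme concentration.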

Where [6] appears, read: DKN (diketonitrile form of isoxaflutole).

B1: 205T: single substitution 205T in SEQ ID NO:2 (protein)
chain: MGPTPTATAAGAAVAAASAAEQAAFRLVGHRNFVRFNPRSDRFQTLAFHHVELWCADAASAAGRFSFALGVPLAARSDLSTGNSAHASLLLRSGSLSLLFTAPYAHGADAATAALPSFSAAAARRFAADHGLAVRAVALRVADAEDAFRASVAAGARPAFGPVDLGRGFRLAEVELYGDVVLRYVSYPDGAAGEPFLPGFEGVATPGAADYGLSRFDHIVGNVPELAPAAAYMAGFTGFHEFAEFTTEDVGTTESGLNSMALANNSENVLLPLNEPVHGTKRRSQIQTFLDHHGGPGVQHIALASDDVLRTLREMRARSAMGGFEFLPPPLSDYYDGVRRCAGDVLTEAQINECQELGVMVDRDDQGVLLQIFTKPVGDRPTFFLEIIQRIGCMEKDEKGQEYQKGGCGGFGKGNFGQLFKSIEDYEKSLEAKQAAAAATAQGS
modifications: Zea mays variant form created by artificial means.
Turning to B1, in series [1], the Km was 2.72 µM. The kcat in series [1] is 0.573 s⁻¹; in series [5], 0.418 s⁻¹. Besides, the “ON ratio (parameters with tembotrione)” value in series [2] stood at 0.74. Also, in series [3], the “OFF ratio (parameters with tembotrione)” value was determined as 0.20. The “Insensitivity parameter, ON × OFF” value is on record as 0.30 in series [4] (setting [6]); 0.47 in series [4] (Mesotrione, Table 6); 0.60 in series [4] (Sulcotrione); 0.22 in series [4] (Tembotrione); 0.29 in series [4] (Topramezon). In addition, in series [4], the “ON × OFF × kcat, Value” is on record as 3.72. Moreover, the “ON × OFF × kcat, Fold vs wt” value in series [4] turned out to be 3.48. For the same molecule, in series [4], the “ON × OFF, fold vs wt” value is 29.0. Further, in series [4], the “ON × OFF (parameters with tembotrione)” value turned out to be 0.15.

B2: 214T: single substitution 214T in SEQ ID NO:2 (protein)
chain: MGPTPTATAAGAAVAAASAAEQAAFRLVGHRNFVRFNPRSDRFQTLAFHHVELWCADAASAAGRFSFALGVPLAARSDLSTGNSAHASLLLRSGSLSLLFTAPYAHGADAATAALPSFSAAAARRFAADHGLAVRAVALRVADAEDAFRASVAAGARPAFGPVDLGRGFRLAEVELYGDVVLRYVSYPDGAAGEPFLPGFEGVASPGAADYGLTRFDHIVGNVPELAPAAAYMAGFTGFHEFAEFTTEDVGTTESGLNSMALANNSENVLLPLNEPVHGTKRRSQIQTFLDHHGGPGVQHIALASDDVLRTLREMRARSAMGGFEFLPPPLSDYYDGVRRCAGDVLTEAQINECQELGVMVDRDDQGVLLQIFTKPVGDRPTFFLEIIQRIGCMEKDEKGQEYQKGGCGGFGKGNFGQLFKSIEDYEKSLEAKQAAAAATAQGS
modifications: Zea mays variant form created by artificial means.
Turning to B2, the Km in series [1] stood at 2.94 µM. In addition, the kcat was 1.4 s⁻¹ in series [1] and 0.653 s⁻¹ in series [5]. Besides, the “ON ratio (parameters with tembotrione)” value in series [2] was 0.74. In addition, in series [3], the “OFF ratio (parameters with tembotrione)” value was determined as 0.14. Further, the “Insensitivity parameter, ON × OFF” value in series [4] (setting [6]) is listed as 0.21; in series [4] (Mesotrione, Table 6), 0.41; in series [4] (Sulcotrione), 0.50; in series [4] (Tembotrione), 0.17; in series [4] (Topramezon), 0.23. The “ON × OFF × kcat, Value” in series [4] is reported as 4.03. Further, in series [4], the “ON × OFF × kcat, Fold vs wt” value stood at 3.76. The “ON × OFF, fold vs wt” value in series [4] is reported as 20.2. Moreover, the “ON × OFF (parameters with tembotrione)” value in series [4] turned out to be 0.10.

B3: 227G: single substitution 227G in SEQ ID NO:2 (protein)
chain: MGPTPTATAAGAAVAAASAAEQAAFRLVGHRNFVRFNPRSDRFQTLAFHHVELWCADAASAAGRFSFALGVPLAARSDLSTGNSAHASLLLRSGSLSLLFTAPYAHGADAATAALPSFSAAAARRFAADHGLAVRAVALRVADAEDAFRASVAAGARPAFGPVDLGRGFRLAEVELYGDVVLRYVSYPDGAAGEPFLPGFEGVASPGAADYGLSRFDHIVGNVPELGPAAAYMAGFTGFHEFAEFTTEDVGTTESGLNSMALANNSENVLLPLNEPVHGTKRRSQIQTFLDHHGGPGVQHIALASDDVLRTLREMRARSAMGGFEFLPPPLSDYYDGVRRCAGDVLTEAQINECQELGVMVDRDDQGVLLQIFTKPVGDRPTFFLEIIQRIGCMEKDEKGQEYQKGGCGGFGKGNFGQLFKSIEDYEKSLEAKQAAAAATAQGS
modifications: Zea mays variant form created by artificial means.
Consider B3, for which the Km in series [1] is 2.61 µM. For the same molecule, the results for the kcat in series [1] and in series [5] were 0.755 s⁻¹ and 0.577 s⁻¹, respectively. The “ON ratio (parameters with tembotrione)” value in series [2] amounted to 0.79. Moreover, the “OFF ratio (parameters with tembotrione)” value in series [3] came to 0.15. Moreover, the “Insensitivity parameter, ON × OFF” value is listed as 0.26 in series [4] (setting [6]); 0.52 in series [4] (Mesotrione, Table 6); 0.63 in series [4] (Sulcotrione); 0.22 in series [4] (Tembotrione); 0.28 in series [4] (Topramezon). For the same molecule, the “ON × OFF × kcat, Value” in series [4] was determined as 4.09. In series [4], the “ON × OFF × kcat, Fold vs wt” value turned out to be 3.83. Further, the “ON × OFF, fold vs wt” value in series [4] was 23.2. For the same molecule, in series [4], the “ON × OFF (parameters with tembotrione)” value turned out to be 0.12.

B4: 431F: single substitution 431F in SEQ ID NO:2 (protein)
chain: MGPTPTATAAGAAVAAASAAEQAAFRLVGHRNFVRFNPRSDRFQTLAFHHVELWCADAASAAGRFSFALGVPLAARSDLSTGNSAHASLLLRSGSLSLLFTAPYAHGADAATAALPSFSAAAARRFAADHGLAVRAVALRVADAEDAFRASVAAGARPAFGPVDLGRGFRLAEVELYGDVVLRYVSYPDGAAGEPFLPGFEGVASPGAADYGLSRFDHIVGNVPELAPAAAYMAGFTGFHEFAEFTTEDVGTTESGLNSMALANNSENVLLPLNEPVHGTKRRSQIQTFLDHHGGPGVQHIALASDDVLRTLREMRARSAMGGFEFLPPPLSDYYDGVRRCAGDVLTEAQINECQELGVMVDRDDQGVLLQIFTKPVGDRPTFFLEIIQRIGCMEKDEKGQEYQKGGCGGFGKGNFGQLFKSIEDYEKSLFAKQAAAAATAQGS
modifications: Zea mays variant form created by artificial means.
In the case of B4, the Km in series [1] turned out to be 1.77 µM. Further, the kcat in series [1] was 0.513 s⁻¹; in series [5], 0.482 s⁻¹. Further, the “ON ratio (parameters with tembotrione)” value in series [2] came to 0.80. Besides, in series [3], the “OFF ratio (parameters with tembotrione)” value was 0.16. For the same molecule, the “Insensitivity parameter, ON × OFF” value in series [4] (setting [6]) stood at 0.26; in series [4] (Mesotrione, Table 6), 0.53; in series [4] (Sulcotrione) it was 0.59; in series [4] (Tembotrione), 0.19; in series [4] (Topramezon), 0.27. The “ON × OFF × kcat, Value” in series [4] is listed as 3.61. Also, the “ON × OFF × kcat, Fold vs wt” value in series [4] was determined as 3.37. Further, the “ON × OFF, fold vs wt” value in series [4] is recorded as 24.5. Further, the “ON × OFF (parameters with tembotrione)” value in series [4] is recorded as 0.13.

B5: 342V: single substitution 342V in SEQ ID NO:2 (protein)
chain: MGPTPTATAAGAAVAAASAAEQAAFRLVGHRNFVRFNPRSDRFQTLAFHHVELWCADAASAAGRFSFALGVPLAARSDLSTGNSAHASLLLRSGSLSLLFTAPYAHGADAATAALPSFSAAAARRFAADHGLAVRAVALRVADAEDAFRASVAAGARPAFGPVDLGRGFRLAEVELYGDVVLRYVSYPDGAAGEPFLPGFEGVASPGAADYGLSRFDHIVGNVPELAPAAAYMAGFTGFHEFAEFTTEDVGTTESGLNSMALANNSENVLLPLNEPVHGTKRRSQIQTFLDHHGGPGVQHIALASDDVLRTLREMRARSAMGGFEFLPPPLSDYYDGVRRCVGDVLTEAQINECQELGVMVDRDDQGVLLQIFTKPVGDRPTFFLEIIQRIGCMEKDEKGQEYQKGGCGGFGKGNFGQLFKSIEDYEKSLEAKQAAAAATAQGS
modifications: Zea mays variant form created by artificial means.
In the case of B5, the Michaelis constant (Km) in series [1] was found to be 2.59 µM. In addition, the results for the turnover number (kcat) in series [1] and in series [5] were 0.903 s⁻¹ and 0.677 s⁻¹, respectively. The “ON ratio (parameters with tembotrione)” value in series [2] stood at 0.78. Further, the “OFF ratio (parameters with tembotrione)” value in series [3] came to 0.13. Moreover, the “Insensitivity parameter, ON × OFF” value in series [4] (setting [6]) is given as 0.22; in series [4] (Mesotrione, Table 6), 0.42; in series [4] (Sulcotrione), 0.51; in series [4] (Tembotrione), 0.17; in series [4] (Topramezon) it was 0.23. Moreover, the “ON × OFF × kcat, Value” in series [4] is given as 4.08. The “ON × OFF × kcat, Fold vs wt” value in series [4] turned out to be 3.82. The “ON × OFF, fold vs wt” value in series [4] was found to be 19.7. Also, the “ON × OFF (parameters with tembotrione)” value in series [4] came to 0.10.
